From paper PMC10100024 (British Journal of Pharmacology, 2022)

Key:
Experiment in all cases: FRET or BRET
[1] = biological target: T1, pplss-3HA-hCB1 receptor T465A/S468A (D4) (human, UniProt P21554 1-472, T465A | S468A)
[2] = biological target: T2, pplss-3HA-hCB1 receptor S425A/S429A (D1) (human, UniProt P21554 1-472, S425A | S429A)
[3] = biological target: T3, pplss-3HA-hCB1 receptor, wild type (human, UniProt P21554 1-472)
[4] = biological target: T4, pplss-3HA-hCB1 receptor S462A/T465A (D2) (human, UniProt P21554 1-472, S462A | T465A)
[5] = biological target: T5, pplss-3HA-hCB1 receptor S464A/T467A (D3) (human, UniProt P21554 1-472, S464A | T467A)
[6] = biological target: T6, pplss-3HA-hCB1 receptor S462A/S464A/T465A (T) (human, UniProt P21554 1-472, S462A | S464A | T465A)
[7] = biological target: T1, pplss-3HA-hCB1 receptor T465A/S468A (D4); remark: listed apart in the source
[8] = biological target: T2, pplss-3HA-hCB1 receptor S425A/S429A (D1); remark: listed apart in the source
[9] = biological target: T3, pplss-3HA-hCB1 receptor, wild type; remark: listed apart in the source
[10] = biological target: T4, pplss-3HA-hCB1 receptor S462A/T465A (D2); remark: listed apart in the source
[11] = biological target: T5, pplss-3HA-hCB1 receptor S464A/T467A (D3); remark: listed apart in the source
[12] = biological target: T6, pplss-3HA-hCB1 receptor …; remark: listed apart in the source

B1: Nluc-(human)-Arrestin-2-Sp1 (natural protein, UniProt P49407 1-418, looked up)
chain: MGDKGTRVFKKASPNGKLTVYLGKRDFVDHIDLVDPVDGVVLVDPEYLKERRVYVTLTCAFRYGREDLDVLGLTFRKDLFVANVQSFPPAPEDKKPLTRLQERLIKKLGEHAYPFTFEIPPNLPCSVTLQPGPEDTGKACGVDYEVKAFCAENLEEKIHKRNSVRLVIRKVQYAPERPGPQPTAETTRQFLMSDKPLHLEASLDKEIYYHGEPISVNVHVTNNTNKTVKKIKISVRQYADICLFNTAQYKCPVAMEEADDTVAPSSTFCKVYTLTPFLANNREKRGLALDGKLKHEDTNLASSTLLREGANREILGIIVSYKVKVKLVVSRGGLLGDLASSDVAVELPFTLMHPKPKEEPPHREVPENETPVDTNLIELDTNDDDIVFEDFARQRLKGMKDDKEEEEDGTGSPQLNNR
- Emax of net translocation (%WT) [1]: 61.6 %WT
- Emax of net translocation (%WT) [2]: 72.3 %WT
- Emax of net translocation (%WT) [3]: 100 %WT
- Emax of net translocation (%WT) [4]: 32.3 %WT
- Emax of net translocation (%WT) [5]: 32.9 %WT
- Emax of net translocation (%WT) [6]: 25.6 %WT
- initial rate of translocation [7]: 7.31e-05 ΔBRET ratio per second
- steady state (ΔBRET ratio) [7]: 0.022 ΔBRET ratio
- translocation half time [7]: 210 s
- initial rate of translocation [8]: 5.81e-05 ΔBRET ratio per second
- steady state (ΔBRET ratio) [8]: 0.036 ΔBRET ratio
- translocation half time [8]: 569 s
- initial rate of translocation [9]: 0.000136 ΔBRET ratio per second
- steady state (ΔBRET ratio) [9]: 0.036 ΔBRET ratio
- translocation half time [9]: 185 s
- initial rate of translocation [10]: 3.77e-05 ΔBRET ratio per second
- steady state (ΔBRET ratio) [10]: 0.012 ΔBRET ratio
- translocation half time [10]: 286 s
- initial rate of translocation [11]: 3.06e-05 ΔBRET ratio per second
- steady state (ΔBRET ratio) [11]: 0.014 ΔBRET ratio
- translocation half time [11]: 354 s
- initial rate of translocation [12]: 3.32e-05 ΔBRET ratio per second
- steady state (ΔBRET ratio) [12]: 0.014 ΔBRET ratio
- translocation half time [12]: 354 s
